Experimental data reported in the supplement of paper PMC7125110.
± gives the standard error. For some of these results: Variants at the floor of the assay were thinned out.

B1: glmS ribozyme (parent)
chain: AUAAAAGCGCCAGAACUACAGAAAUGUAGUUGACGAGGAGGAGGUUUAUCGAAUUUUCGGCGGAUGCCUCCAAA

Assays:
Settings in all cases: with glucosamine-6-phosphate
glucosamine-6-phosphate [1] = variants of: B1; test: kcat; higher = faster cleavage; RNA array
Outline: (§1)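 Weighted Michaelis–Menten fits across concentrations supplied kcat and KM, based on kobs from one- or two-exponential decay fits to normalised per-tile medians. The data came from barcoded ribozyme variants transcribed in situ by E. coli RNA polymerase on sequenced MiSeq chips and tracked at 37 °C by a hybridised Cy3 probe. Glucosamine-6-phosphate (40 μM to 10 mM) in HEPES/KCl/Mg(OAc)2 buffer was flowed in.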

glucosamine-6-phosphate [2] = variants of: B1; test: KM; higher = weaker cofactor use; RNA array
Outline: as §1

glucosamine-6-phosphate [3] = variants of: B1; test: self-cleavage kobs at 40 uM GlcN6P; higher = faster cleavage; RNA array
Outline: as §1

glucosamine-6-phosphate [4] = variants of: B1; test: self-cleavage kobs at 160 uM GlcN6P; higher = faster cleavage; RNA array
Outline: as §1

glucosamine-6-phosphate [5] = variants of: B1; test: self-cleavage kobs at 640 uM GlcN6P; higher = faster cleavage; RNA array
Outline: as §1

glucosamine-6-phosphate [6] = variants of: B1; test: self-cleavage kobs at 2500 uM GlcN6P; higher = faster cleavage; RNA array
Outline: as §1

glucosamine-6-phosphate [7] = variants of: B1; test: self-cleavage kobs at 10000 uM GlcN6P; higher = faster cleavage; RNA array
Outline: as §1

| Variant | kcat (glucosamine-6-phosphate [1]) | KM (glucosamine-6-phosphate [2]) | self-cleavage kobs at 40 uM GlcN6P (glucosamine-6-phosphate [3]) | self-cleavage kobs at 160 uM GlcN6P (glucosamine-6-phosphate [4]) | self-cleavage kobs at 640 uM GlcN6P (glucosamine-6-phosphate [5]) | self-cleavage kobs at 2500 uM GlcN6P (glucosamine-6-phosphate [6]) | self-cleavage kobs at 10000 uM GlcN6P (glucosamine-6-phosphate [7]) |
| --- | --- | --- | --- | --- | --- | --- | --- |
| A15G | 0.0648 ± 0.0031 s⁻¹ | 2180 ± 120 µM | 0.00118 ± 2.4e-05 s⁻¹ | 0.00423 ± 0.00032 s⁻¹ | 0.0144 ± 0.00063 s⁻¹ | 0.0326 ± 0.0018 s⁻¹ | 0.0552 ± 0.0025 s⁻¹ |
| G29C U65A | 0.000197 ± 2.5e-05 s⁻¹ | 2100 ± 780 µM |  |  | 3.62e-05 ± 1.2e-05 s⁻¹ | 0.00013 ± 1.8e-05 s⁻¹ | 0.000157 ± 1.5e-05 s⁻¹ |
| C16G U47C | 0.00027 ± 0.00013 s⁻¹ |  |  |  | 0.000231 ± 7.9e-05 s⁻¹ | 0.000192 ± 5.1e-05 s⁻¹ |  |
| A14U U47G | 0.00156 ± 0.00026 s⁻¹ | 1750 ± 450 µM | 5.6e-05 ± 8.8e-06 s⁻¹ | 0.000115 ± 1.4e-05 s⁻¹ | 0.000416 ± 4.8e-05 s⁻¹ | 0.000947 ± 0.00011 s⁻¹ | 0.00132 ± 0.00013 s⁻¹ |
| A15U U49C | < 1e-05 s⁻¹ |  | < 1e-05 s⁻¹ |  | < 1e-05 s⁻¹ |  | < 1e-05 s⁻¹ |
| G29A G63C | < 1e-05 s⁻¹ |  | < 1e-05 s⁻¹ |  |  | < 1e-05 s⁻¹ | < 1e-05 s⁻¹ |
| A14G U45G | 0.0225 ± 0.0076 s⁻¹ | 3450 ± 1400 µM | 0.000286 ± 0.0001 s⁻¹ | 0.000908 ± 0.00024 s⁻¹ | 0.00617 ± 0.0025 s⁻¹ | 0.00864 ± 0.003 s⁻¹ | 0.0175 ± 0.0071 s⁻¹ |
